Experimental data taken from US20030104377, “Tenascin-C nucleic acid ligands” (Gilead Sciences, Inc., published 2003).
Where a chain is given by its changes, count along the chain named.

B1: TN18 (ssRNA)
RNA: GGGAGGACGAUGCGGUCGACCUCGAAUGACUCUCCACCUAUCUAACAUCCCCCCCCAGACGACUCGCCCGA
modifications: 2'-F C and U
B2: TN27 (ssRNA)
RNA: GGGAGGACGAUGCGGAAACCAACCGUUGACCACCUUUUCGUUUCCGGAAAGUCCCCAGACGACUCGCCCGA
modifications: 2'-F C and U
B3: TN24 (ssRNA)
RNA: GGGAGGACGAUGCGGGACCAACUAAACUGUUCGAAAGCUGGAACAUGUCCUGACGCCAGACGACUCGCCCGA
modifications: 2'-F C and U
B4: TN22 (ssRNA)
RNA: GGGAGGACGAUGCGGCAACCUCGAUAGACUUUUCCCGCAUCACUGUGUACUCCCCCAGACGACUCGCCCGA
modifications: 2'-F C and U
B5: TN11 (ssRNA)
RNA: GGGAGGACGAUGCGGCAAUCAAAACUCACGUUAUUCCCUCAUCUAUUAGCUUCCCCAGACGACUCGCCCGA
modifications: 2'-F C and U
B6: TN45 (ssRNA)
RNA: GGGAGGACGAUGCGGCAAUCUCCGAAAAAGACUCUUCCUGCAUCCUCUCACCCCCCAGACGACUCGCCCGA
modifications: 2'-F C and U
B7: TN4 (ssRNA)
RNA: B4 RNA with U25A
modifications: 2'-F C and U
B8: TN32 (ssRNA)
RNA: GGGAGGACGAUGCGGCAACCUCAAUCUUGACAUUUCCCGCACCUAAAUUUGCCCCCAGACGACUCGCCCGA
modifications: 2'-F C and U
B9: TN14 (ssRNA)
RNA: GGGAGGACGAUGCGGCAAACGAUCACUUACCUUUCCUGCAUCUGCUAGCCUCCCCCAGACGACUCGCCCGA
modifications: 2'-F C and U
B10: TN44 (ssRNA)
RNA: GGGAGGACGAUGCGGACGCCAGCCAUUGACCCUCGCUUCCACUAUUCCAUCCCCCCAGACGACUCGCCCGA
modifications: 2'-F C and U
B11: TN29 (ssRNA)
RNA: GGGAGGACGAUGCGGCCAACCUCAUUUUGACACUUCGCCGCACCUAAUUGCCCCCAGACGACUCGCCCGA
modifications: 2'-F C and U
B12: TN9.4M1 (ssRNA)
RNA: GGGAGGACGAUGCGGAACAAUGCACUCGUCGCCGUAAUGGAUGUUUUGCUCCCUG
modifications: 2'-F C and U; 2'-OMe G1,G2,G3,A4,G5,G55; 3'-3' cap
B13: TN9.4M2 (ssRNA)
RNA: B12 RNA
modifications: 2'-F C and U; 2'-OMe G6,A7,G9,A10,G12,G14; 3'-3' cap
B14: TN9.4M3 (ssRNA)
RNA: B12 RNA
modifications: 2'-F C and U; 2'-OMe G15,A16,A17,A19,A20,G22,A24; 3'-3' cap
B15: TN9.4M5 (ssRNA)
RNA: B12 RNA
modifications: 2'-F C and U; 2'-OMe A36,A37,G39,G40,A41,G43,G48; 3'-3' cap
B16: TN9.4Me (ssRNA)
RNA: B12 RNA
modifications: 2'-F C and U; 2'-OMe all purines; 3'-3' cap
B17: TN9.4M1235 (ssRNA)
RNA: B12 RNA
modifications: 2'-F C and U; 2'-OMe purines of sectors 1,2,3,5 (G28,G31,G34 2'-OH); 5' hexyl amine; 3'-3' cap
B18: TN9.4M135G6 (ssRNA)
RNA: B12 RNA
modifications: 2'-F C and U; 2'-OMe purines of sectors 1,3,5 plus G6; 5' hexyl amine; 3'-3' cap
B19: TN9.4M135A7 (ssRNA)
RNA: B12 RNA
modifications: 2'-F C and U; 2'-OMe purines of sectors 1,3,5 plus A7; 5' hexyl amine; 3'-3' cap
B20: TN9.4M135G9 (ssRNA)
RNA: B12 RNA
modifications: 2'-F C and U; 2'-OMe purines of sectors 1,3,5 plus G9; 5' hexyl amine; 3'-3' cap
B21: TN9.4M135A10 (ssRNA)
RNA: B12 RNA
modifications: 2'-F C and U; 2'-OMe purines of sectors 1,3,5 plus A10; 5' hexyl amine; 3'-3' cap
B22: TN9.4M135G12G14 (ssRNA)
RNA: B12 RNA
modifications: 2'-F C and U; 2'-OMe purines of sectors 1,3,5 plus G12,G14; 5' hexyl amine; 3'-3' cap
B23: TN9.4M135G28 (ssRNA)
RNA: B12 RNA
modifications: 2'-F C and U; 2'-OMe purines of sectors 1,3,5 plus G28; 5' hexyl amine; 3'-3' cap
B24: TN9.4M135G31 (ssRNA)
RNA: B12 RNA
modifications: 2'-F C and U; 2'-OMe purines of sectors 1,3,5 plus G31; 5' hexyl amine; 3'-3' cap
B25: TN9.4M135G34 (ssRNA)
RNA: B12 RNA
modifications: 2'-F C and U; 2'-OMe purines of sectors 1,3,5 plus G34; 5' hexyl amine; 3'-3' cap
B26: TN9.4 (ssRNA)
RNA: B12 RNA
modifications: 2'-F C and U; 3'-3' cap
B27: TN7 (ssRNA)
RNA: GGGAGGACGAUGCGGAACACUUUCCCAUGCGUCGCCAUACCGGAUAUAUUGCUCCCAGACGACUCGCCCGA
modifications: 2'-F C and U
B28: TN21 (ssRNA)
RNA: GGGAGGACGAUGCGGACUGGACCAAACCGUCGCCGAUACCCGGAUACUUUGCUCCCAGACGACUCGCCCGA
modifications: 2'-F C and U
B29: TN9 (ssRNA)
RNA: GGGAGGACGAUGCGGAACAAUGCACUCGUCGCCGUAAUGGAUGUUUUGCUCCCUGCAGACGACUCGCCCGA
modifications: 2'-F C and U
B30: TN41 (ssRNA)
RNA: GGGAGGACGAUGCGGUUAAGUCUCGGUUGAAUGCCCAUCCCAGAUCCCCCUGACCCAGACGACUCGCCCGA
modifications: 2'-F C and U
B31: E9P2-1 (ssRNA)
RNA: GGGAGGACGAUGCGGUGCCCAUAGAAGCGUGCCGCUAAUGCUAACGCCCUCCCCCAGACGACUCGCCCGA
modifications: 2'-F C and U
B32: E9P2-2 (ssRNA)
RNA: GGGAGGACGAUGCGGUGCCCACUAUGCGUGCCGAAAAACAUUUCCCCCUCUACCCCAGACGACUCGCCCGA
modifications: 2'-F C and U

What follows are binders tested against T1, Tenascin-C (Homo sapiens, UniProt P24821 P24821:23-2201) (assay: filter). Settings: tags: Chemicon (Temecula, CA).
T1 sequence (P24821 23-2201, one chain of several): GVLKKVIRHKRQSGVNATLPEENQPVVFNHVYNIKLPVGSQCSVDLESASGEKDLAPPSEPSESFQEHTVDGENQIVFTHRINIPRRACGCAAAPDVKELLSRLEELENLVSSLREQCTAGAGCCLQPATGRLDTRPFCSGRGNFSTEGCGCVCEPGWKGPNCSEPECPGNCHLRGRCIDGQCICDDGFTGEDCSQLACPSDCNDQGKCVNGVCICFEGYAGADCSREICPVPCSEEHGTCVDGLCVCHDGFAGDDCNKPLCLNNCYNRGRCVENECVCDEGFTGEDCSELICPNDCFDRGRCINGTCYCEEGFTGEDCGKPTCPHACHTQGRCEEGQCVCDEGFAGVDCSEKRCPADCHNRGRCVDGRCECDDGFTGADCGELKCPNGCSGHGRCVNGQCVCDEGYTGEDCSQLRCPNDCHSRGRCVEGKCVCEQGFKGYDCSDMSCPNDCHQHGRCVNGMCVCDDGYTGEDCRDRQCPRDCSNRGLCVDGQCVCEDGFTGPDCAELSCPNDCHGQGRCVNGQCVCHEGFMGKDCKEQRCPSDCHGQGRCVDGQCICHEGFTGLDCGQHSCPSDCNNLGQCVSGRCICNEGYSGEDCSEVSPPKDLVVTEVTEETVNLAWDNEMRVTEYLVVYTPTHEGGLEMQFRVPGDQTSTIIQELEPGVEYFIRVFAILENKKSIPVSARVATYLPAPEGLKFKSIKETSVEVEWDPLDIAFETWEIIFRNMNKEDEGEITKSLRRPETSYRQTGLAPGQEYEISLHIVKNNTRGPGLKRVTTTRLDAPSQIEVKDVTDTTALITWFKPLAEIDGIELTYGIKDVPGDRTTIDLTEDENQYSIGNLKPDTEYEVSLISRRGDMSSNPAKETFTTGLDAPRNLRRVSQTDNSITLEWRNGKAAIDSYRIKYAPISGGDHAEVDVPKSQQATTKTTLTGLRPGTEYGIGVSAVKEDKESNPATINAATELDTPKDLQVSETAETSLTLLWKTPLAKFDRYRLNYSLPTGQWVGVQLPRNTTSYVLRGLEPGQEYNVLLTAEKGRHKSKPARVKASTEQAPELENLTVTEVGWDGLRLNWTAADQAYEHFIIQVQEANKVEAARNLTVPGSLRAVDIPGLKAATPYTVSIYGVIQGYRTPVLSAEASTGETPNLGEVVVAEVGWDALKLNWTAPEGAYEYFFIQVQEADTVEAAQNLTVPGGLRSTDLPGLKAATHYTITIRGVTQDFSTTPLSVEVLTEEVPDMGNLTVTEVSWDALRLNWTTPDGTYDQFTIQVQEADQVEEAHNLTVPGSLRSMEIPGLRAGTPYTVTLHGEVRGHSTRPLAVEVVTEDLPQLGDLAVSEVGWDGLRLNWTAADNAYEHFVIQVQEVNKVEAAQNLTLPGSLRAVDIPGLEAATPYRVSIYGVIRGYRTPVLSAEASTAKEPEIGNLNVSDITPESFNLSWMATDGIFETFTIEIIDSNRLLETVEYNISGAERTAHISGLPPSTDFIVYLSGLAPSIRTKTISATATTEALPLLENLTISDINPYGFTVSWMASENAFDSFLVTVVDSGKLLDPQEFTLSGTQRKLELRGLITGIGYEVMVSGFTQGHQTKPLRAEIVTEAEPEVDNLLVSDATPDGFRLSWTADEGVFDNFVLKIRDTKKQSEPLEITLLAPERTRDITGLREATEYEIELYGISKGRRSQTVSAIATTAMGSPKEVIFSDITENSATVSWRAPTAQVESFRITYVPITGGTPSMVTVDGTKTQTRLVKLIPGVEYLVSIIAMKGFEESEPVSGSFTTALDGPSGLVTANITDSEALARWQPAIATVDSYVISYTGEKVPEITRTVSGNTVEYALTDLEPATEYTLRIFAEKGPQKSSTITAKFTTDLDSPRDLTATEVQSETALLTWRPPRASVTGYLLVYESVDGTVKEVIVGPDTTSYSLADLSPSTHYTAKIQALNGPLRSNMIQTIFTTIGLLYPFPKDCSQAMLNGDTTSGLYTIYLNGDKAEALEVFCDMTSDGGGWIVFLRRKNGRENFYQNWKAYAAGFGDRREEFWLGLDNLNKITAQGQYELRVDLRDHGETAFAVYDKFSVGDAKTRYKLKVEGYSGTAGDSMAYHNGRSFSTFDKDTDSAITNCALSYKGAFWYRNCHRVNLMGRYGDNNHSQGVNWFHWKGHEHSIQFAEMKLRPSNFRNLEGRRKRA

GGGAGGACGCACUCGUCGCCGUAAUGGAUGUUUUGCUCCCUG (ssRNA, 2'-F C and U [2'-F: 8,10,12-14,16,17,19,20,22,25,29,31-34,36-41]) [TN9 with CACU loop]: binds.
GGGAGGACGGAGACGUCGCCGUAAUGGAUGUUUUGCUCCCUG (ssRNA, 2'-F C and U [2'-F: 8,14,16,17,19,20,22,25,29,31-34,36-41]) [TN9 with GAGA loop]: binds.

Each binder was assayed against T1, Tenascin-C (assay: filter; orphan). Settings: tags: Chemicon (Temecula, CA).
Method: (§1) which contains the T7 polymerase promoter (underlined). RNA was prepared with T7 RNA polymerase as described previously in Fitzwater, T., and Polisky, B. 1996. A SELEX primer. Methods Enzymol. 267, 275-301, incorporated herein by reference in its entirety. All transcription reactions were performed in the presence of pyrimidine nucleotides that were 2′-fluoro (2′-F) modified on the sugar moiety. This substitution confers enhanced resistance to ribonucleases that utilize the 2′-hydroxyl moiety for cleavage of the phosphodiester bond. Specifically, each transcription mixture contained 3.3 mM 2′-F UTP and 3.3 mM 2′-F CTP along with 1 mM GTP and ATP. The initial randomized RNA library thus produced comprised 3×10¹⁴ molecules. The affinities of individual ligands for tenascin-C were determined by standard methods using nitrocellulose filter partitioning (Tuerk C, Gold L. Science Aug. 3, 1990 3;249(4968):505-10).

In order of rising Kd:
1. B3  10 nM
2. B2  110 nM
3. B1  145 nM

Each binder was assayed against T1, Tenascin-C (assay: filter; Family I; printed as 7N22). Settings: tags: Chemicon (Temecula, CA).

Work on B4 yielded a Kd of 40 nM.

What follows are binders tested against T1, Tenascin-C (assay: filter; Family I). Settings: tags: Chemicon (Temecula, CA).
Method: as §1

In order of rising Kd:
1. B5  10 nM
2. B10  10 nM
3. B8  15 nM
4. B9  20 nM
5. B11  25 nM
6. B6  30 nM
7. B7  40 nM

Target: T1, Tenascin-C
Test: filter
Settings: tags: Chemicon (Temecula, CA)
Remark: another data set of the same source
Text: (§2) Oligonucleotide synthesis procedures were standard for those skilled in the art (Green L S, Jellinek D, Bell C, Beebe L A, Feistner B D, Gill S C, Jucker F M, Janjic N. Chem Biol 1995 Oct.;2(10):683-95). 2′-fluoro pyrimidine phosphoramidite monomers were obtained from JBL Scientific (San Luis Obispo, Calif.); 2′-OMe purine, 2′-OH purine, hexyl amine, and (CH₂CH₂O)₆ monomers, along with the dT polystyrene solid support, were obtained from Glen Research (Sterling, Va.). Aptamer affinities were determined using nitrocellulose filter partitioning (Green et al., supra).

In order of falling Kd:
1. B24  55 nM
2. B23  37 nM
3. B13  20 nM
4. B17  16.5 nM
5. B16  10 nM
6. B20  7.7 nM
7. B14  7 nM
8. B25  7 nM
9. B12  6 nM
10. B15  4 nM
11. B22  2.5 nM
12. B18  2.2 nM
13. B19  1.7 nM
14. B21  1.3 nM

These binders were tested against T1, Tenascin-C (assay: filter; unit printed as nN). Settings: tags: Chemicon (Temecula, CA).
Text: as §2

Binder B26 has a Kd of 2 nM.

The binders below were run against T1, Tenascin-C (assay: filter; Family II). Settings: tags: Chemicon (Temecula, CA).

In order of falling Kd:
1. B27  20 nM
2. B30  20 nM
3. B28  10 nM
4. B32  8 nM
5. B29  5 nM
6. B31  2 nM
